The source of these data is patent US20250171537A1 (NOVIMMUNE, published 2025).

In this assay the target is T1, human CD47 (human, UniProt Q08722 19-139, limits assumed).
T1 construct: in the IHC study it is the native protein in frozen human tissues; also called Integrin-Associated-Protein; IAP
Nature of the assay: immunohistochemistry, biotin-conjugated NI-1801 on frozen human tissues. From the text: Sections of ovarian carcinoma (endometrioid adenocarcinoma) were used as positive controls.

T1 sequence (Q08722 19-139 limits assumed): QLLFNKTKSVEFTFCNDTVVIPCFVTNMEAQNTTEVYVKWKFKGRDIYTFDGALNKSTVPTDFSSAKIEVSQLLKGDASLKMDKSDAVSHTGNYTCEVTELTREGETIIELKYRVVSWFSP

B1: NI-1801 (bispecific antibody Ka3×O38, anti-CD47 × anti-mesothelin) (bispecific antibody, human IgG1, kappa, lambda)
heavy: not shown
light 1: not shown
light 2: QPVLTQPASLSASPGASASLTCTLRSGINVRDYRIFWYQQKPGSPPQYLLRYKSASDKQQGSGVPSRFSGSKDASANAGILLISGLQSEDEADYYCMIWHHDSEGHAFVFGGGTKLTVLGQPKAAPSVTLFPPSSEELQANKATLVCLISDFYPGAVTVAWKADSSPVKAGVETTTPSKQSNNKYAASSYLSLTPEQWKSHRSYSCQVTHEGSTVEKTVAPTECS
notes: also called CD47×MSLN bispecific
For the molecule B1, the binding result was “binds”.
